Measured values published in patent US20120208216A1.

Experiments:
[1] = target: chimpanzee immunoglobulin of class G (chimpanzee serum); assay: SPR (BIAcore T100), mAb captured by anti-mouse Fc, serum 1:100; signal at 80 s
[2] = target: cynomolgus IgG (cynomolgus serum); assay: as above
[3] = target: baboon IgG (baboon serum); assay: as above
[4] = target: human immunoglobulin of class G (human serum); assay: as above
[5] = target: marmoset IgG (marmoset serum); assay: as above
[6] = target: Rhesus-monkey IgG (Rhesus-monkey serum); assay: as above
[7] = target: dog IgG (dog serum); assay: as above
[8] = target: antibody against the IL-1R receptor (anti-IL1R antibody); assay: sandwich ELISA, Bi- and Dig-M-R10Z8E9 as capture and detection; analyte 50.00 ng/ml in cynomolgus serum
[9] = target: antibody against the IL13 receptor α1 protein (anti-IL13Rα1 antibody); assay: as above
[10] = target: antibody against the amyloid β-A4 peptide (anti-Aβ antibody); assay: as above
[11] = target: antibody against the IL-6 receptor (anti-IL6R antibody); assay: as above
[12] = target: antibody against the IL-1R receptor (anti-IL1R antibody); assay: sandwich ELISA, Bi- and Dig-M-R10Z8E9 as capture and detection; analyte 25.00 ng/ml in cynomolgus serum
[13] = target: antibody against the IL13 receptor α1 protein (anti-IL13Rα1 antibody); assay: as above
[14] = target: antibody against the amyloid β-A4 peptide (anti-Aβ antibody); assay: as above
[15] = target: antibody against the IL-6 receptor (anti-IL6R antibody); assay: as above
[16] = target: chimpanzee immunoglobulin of class G (chimpanzee serum); assay: SPR (BIAcore T100), mAb captured by anti-mouse Fc, serum 1:100; 1:1 Langmuir, serum IgG assumed 15 mg/ml
[17] = target: human immunoglobulin of class G (human serum); assay: as above
[18] = target: marmoset IgG (marmoset serum); assay: as above
[19] = target: dog IgG (dog serum); assay: as above
[20] = target: antibody against the IL-1R receptor (anti-IL1R antibody); assay: sandwich ELISA, Bi- and Dig-M-R10Z8E9 as capture and detection; analyte 100.00 ng/ml in cynomolgus serum
[21] = target: antibody against the IL13 receptor α1 protein (anti-IL13Rα1 antibody); assay: as above
[22] = target: antibody against the amyloid β-A4 peptide (anti-Aβ antibody); assay: as above
[23] = target: antibody against the IL-6 receptor (anti-IL6R antibody); assay: as above
[24] = target: antibody against the IL-1R receptor (anti-IL1R antibody); assay: sandwich ELISA, Bi- and Dig-M-R10Z8E9 as capture and detection; 0.00 ng/ml analyte in cynomolgus serum (blank)
[25] = target: antibody against the IL13 receptor α1 protein (anti-IL13Rα1 antibody); assay: as above
[26] = target: antibody against the amyloid β-A4 peptide (anti-Aβ antibody); assay: as above
[27] = target: antibody against the IL-6 receptor (anti-IL6R antibody); assay: as above
[28] = target: antibody against the IL-1R receptor (anti-IL1R antibody); assay: sandwich ELISA, Bi- and Dig-M-R10Z8E9 as capture and detection; analyte 1.56 ng/ml in cynomolgus serum
[29] = target: antibody against the IL13 receptor α1 protein (anti-IL13Rα1 antibody); assay: as above
[30] = target: antibody against the amyloid β-A4 peptide (anti-Aβ antibody); assay: as above
[31] = target: antibody against the IL-6 receptor (anti-IL6R antibody); assay: as above
[32] = target: antibody against the IL-1R receptor (anti-IL1R antibody); assay: sandwich ELISA, Bi- and Dig-M-R10Z8E9 as capture and detection; analyte 12.50 ng/ml in cynomolgus serum
[33] = target: antibody against the IL13 receptor α1 protein (anti-IL13Rα1 antibody); assay: as above
[34] = target: antibody against the amyloid β-A4 peptide (anti-Aβ antibody); assay: as above
[35] = target: antibody against the IL-6 receptor (anti-IL6R antibody); assay: as above
[36] = target: antibody against the IL-1R receptor (anti-IL1R antibody); assay: sandwich ELISA, Bi- and Dig-M-R10Z8E9 as capture and detection; analyte 6.25 ng/ml in cynomolgus serum
[37] = target: antibody against the IL13 receptor α1 protein (anti-IL13Rα1 antibody); assay: as above
[38] = target: antibody against the amyloid β-A4 peptide (anti-Aβ antibody); assay: as above
[39] = target: antibody against the IL-6 receptor (anti-IL6R antibody); assay: as above
[40] = target: antibody against the IL-1R receptor (anti-IL1R antibody); assay: sandwich ELISA, Bi- and Dig-M-R10Z8E9 as capture and detection; analyte 3.13 ng/ml in cynomolgus serum
[41] = target: antibody against the IL13 receptor α1 protein (anti-IL13Rα1 antibody); assay: as above
[42] = target: antibody against the amyloid β-A4 peptide (anti-Aβ antibody); assay: as above
[43] = target: antibody against the IL-6 receptor (anti-IL6R antibody); assay: as above

**Q.** Which results are given for MAB<h-Fc gamma>M-R10Z8E9 (antibody)?
**A.** Bound RU [1]: 159 RU; Bound RU [2]: -1.4 RU; Bound RU [3]: -1.5 RU; Bound RU [4]: 151 RU; Bound RU [5]: 18.9 RU; Bound RU [6]: -1.9 RU; Bound RU [7]: 35.5 RU; OD [8]: 1.52 OD; OD [9]: 1.67 OD; OD [10]: 1.71 OD; OD [11]: 1.56 OD; OD [12]: 0.98 OD; OD [13]: 1.23 OD; OD [14]: 1.31 OD; OD [15]: 1.08 OD; Kd [16]: 0.221 nM; Kd [17]: 0.177 nM; Kd [18]: 204 nM; Kd [19]: 31.7 nM; OD [20]: 1.88 OD; OD [21]: 1.97 OD; OD [22]: 1.93 OD; OD [23]: 1.82 OD; OD [24]: 0.024 OD; OD [25]: 0.022 OD; OD [26]: 0.023 OD; OD [27]: 0.024 OD; OD [28]: 0.085 OD; OD [29]: 0.119 OD; OD [30]: 0.139 OD; OD [31]: 0.105 OD; OD [32]: 0.546 OD; OD [33]: 0.772 OD; OD [34]: 0.881 OD; OD [35]: 0.664 OD; OD [36]: 0.276 OD; OD [37]: 0.408 OD; OD [38]: 0.482 OD; OD [39]: 0.348 OD; OD [40]: 0.153 OD; OD [41]: 0.226 OD; OD [42]: 0.264 OD; OD [43]: 0.19 OD
